Results published in the supplement of paper PMC5998384.

Experiments:
HeLa Kyoto [1] = test: thermal stability score vs G1/S (z-score of summed log2 fold changes over temperatures); higher = more thermally stable than in G1/S
HeLa Kyoto [2] = test: solubility in G1/S (NP-40 vs SDS abundance) (log2 ratio); higher = more soluble; details: cell cycle stage: G1/S
HeLa Kyoto [3] = test: solubility change mitosis vs G1/S (difference of NP-40 vs SDS log2 ratios) (log2 ratio difference); higher = more soluble in mitosis
HeLa Kyoto [4] = test: melting temperature (median over replicates), in situ; higher = more thermally stable
[5] = cell cycle stage: early G1 (4.5 h after nocodazole release)
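Wherever melting temperature (median over replicates), in situ is given: HeLa Kyoto cells synchronized by double thymidine or nocodazole block, proteins quantified by TMT10plex mass spectrometry, three independent biological replicates.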
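Wherever solubility change mitosis vs G1/S (difference of NP-40 vs SDS log2 ratios) is given: synchronized HeLa Kyoto cells (double thymidine block for G1/S, nocodazole release for mitosis), protein amounts in NP-40 versus SDS lysates quantified by mass spectrometry, three biological replicates.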
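Wherever solubility in G1/S (NP-40 vs SDS abundance) is given: HeLa Kyoto cells arrested at G1/S by double thymidine block, proteins quantified by TMT10plex mass spectrometry in mild NP-40 versus SDS extracts, three biological replicates.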
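Wherever thermal stability score vs G1/S (z-score of summed log2 fold changes over temperatures) is given: synchronized HeLa Kyoto cells, proteins quantified by TMT10plex mass spectrometry, three biological replicates, mitosis taken 0.5 h after nocodazole release, G1/S directly after double thymidine block.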

Chain of SLC27A4 (chain, as listed by the source): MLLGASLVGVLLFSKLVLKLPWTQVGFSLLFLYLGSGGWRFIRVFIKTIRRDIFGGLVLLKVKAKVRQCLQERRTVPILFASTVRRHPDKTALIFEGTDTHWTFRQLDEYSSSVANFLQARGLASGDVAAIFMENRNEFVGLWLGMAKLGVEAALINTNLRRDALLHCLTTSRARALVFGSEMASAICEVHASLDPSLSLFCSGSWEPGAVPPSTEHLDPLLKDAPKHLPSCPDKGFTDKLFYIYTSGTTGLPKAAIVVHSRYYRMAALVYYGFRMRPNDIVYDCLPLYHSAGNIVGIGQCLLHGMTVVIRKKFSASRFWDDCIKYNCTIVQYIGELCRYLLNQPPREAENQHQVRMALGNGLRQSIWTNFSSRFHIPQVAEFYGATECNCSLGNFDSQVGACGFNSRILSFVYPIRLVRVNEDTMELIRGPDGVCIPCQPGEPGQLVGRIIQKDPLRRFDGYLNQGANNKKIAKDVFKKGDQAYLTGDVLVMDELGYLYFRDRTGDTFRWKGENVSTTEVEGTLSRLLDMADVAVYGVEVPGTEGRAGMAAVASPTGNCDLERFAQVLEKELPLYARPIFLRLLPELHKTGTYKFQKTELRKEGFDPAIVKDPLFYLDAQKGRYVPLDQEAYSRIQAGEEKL
Chain of TMEM55B (chain, as listed by the source): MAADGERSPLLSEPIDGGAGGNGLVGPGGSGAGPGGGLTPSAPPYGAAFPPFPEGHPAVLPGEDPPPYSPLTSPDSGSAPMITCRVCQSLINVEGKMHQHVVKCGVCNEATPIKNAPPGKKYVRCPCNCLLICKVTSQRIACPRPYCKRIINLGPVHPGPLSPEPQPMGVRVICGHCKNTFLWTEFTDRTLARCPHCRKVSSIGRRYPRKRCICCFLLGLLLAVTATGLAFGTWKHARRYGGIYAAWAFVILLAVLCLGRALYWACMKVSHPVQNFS

Substance	thermal stability score (HeLa Kyoto [1]; [5])	thermal stability score (HeLa Kyoto [1]; cell cycle stage: mitosis)	solubility in G1/S (log2) (HeLa Kyoto [2])	solubility change mitosis (log2) (HeLa Kyoto [3])	melting temperature (HeLa Kyoto [4]; cell cycle stage: G1/S) [°C]	melting temperature (HeLa Kyoto [4]; cell cycle stage: mitosis) [°C]
MMTSVSSDHCRGAREKPQISAAQSTQPQKQVVQATAEQMRLAQVIFDKNDSDFEAKVKQLMEVTGKNQDECIVALHDCNGDVNKAINILLEGNSDTTSWETVGCKKKNFAKENSENKENREKKSEKESSRGRGNNNRKGRGGNRGREFRGEENGIDCNQVDKPSDRGKRARGRGFGRGRGRGAGRFSTQGMGTFNPADYSDSTSTDVCGTKLVVWEAAQNGADEGTELASNTHNIAQDLSNKSSYGLKGAWKNSVEEWTTEDWTEDLSETKVFTASSAPAENHILPGQSIDLVALLQKPVPHSQASEANSFETSQQQGFGQALVFTNSQHNNQMAPGTGSSTAVNSCSPQSLSSVLGSGFGELAPPKMANITSSQILDQLKAPSLGQFTTTPSTQQNSTSHPTTTTSWDLKPPTSQSSVLSHLDFKSQPEPSPVLSQLSQRQQHQSQAVTVPPPGLESFPSQAKLRESTPGDSPSTVNKLLQLPSTTIENISVSVHQPQPKHIKLAKRRIPPASKIPASAVEMPGSADVTGLNVQFGALEFGSEPSLSEFGSAPSSENSNQIPISLYSKSLSEPLNTSLSMTSAVQNSTYTTSVITSCSLTSSSLNSASPVAMSSSYDQSSVHNRIPYQSPVSSSESAPGTIMNGHGGGRSQQTLDTPKTTGPPSALPSVSSLPSTTSCTALLPSTSQHTGDLTSSPLSQLSSSLSSHQSSLSAHAALSSSTSHTHASVESASSHQSSATFSTAATSVSSSASSGASLSSSMNTANSLCLGGTPASASSSSSRAAPLVTSGKAPPNLPQGVPPLLHNQYLVGPGGLLPAYPIYGYDELQMLQSRLPVDYYGIPFAAPTALASRDGSLANNPYPGDVTKFGRGDSASPAPATTPAQPQQSQSQTHHTAQQPFVNPALPPGYSYTGLPYYTGMPSAFQYGPTMFVPPASAKQHGVNLSTPTPPFQQASGYGQHGYSTGYDDLTQGTAAGDYSKGGYAGSSQAPNKSAGSGPGKGVSVSSSTTGLPDMTGSVYNKTQTFDKQGFHAGTPPPFSLPSVLGSTGPLASGAAPGYAPPPFLHILPAHQQPHSQLLHHHLPQDAQSGSGQRSQPSSLQPKSQASKPAYGNSPYWTN [UBAP2]	-3.11	-3.84	0.0134	-0.0536	57.3	56.8
MDLLFGRRKTPEELLRQNQRALNRAMRELDRERQKLETQEKKIIADIKKMAKQGQMDAVRIMAKDLVRTRRYVRKFVLMRANIQAVSLKIQTLKSNNSMAQAMKGVTKAMGTMNRQLKLPQIQKIMMEFERQAEIMDMKEEMMNDAIDDAMGDEEDEEESDAVVSQVLDELGLSLTDELSNLPSTGGSLSVAAGGKKAEAAASALADADADLEERLKNLRRD [CHMP2A]	0.326	0.533	0.537	0.0293	53	54.4
MLSLLVWILTLSDTFSQGTQTRFSQEPADQTVVAGQRAVLPCVLLNYSGIVQWTKDGLALGMGQGLKAWPRYRVVGSADAGQYNLEITDAELSDDASYECQATEAALRSRRAKLTVLIPPEDTRIDGGPVILLQAGTPHNLTCRAFNAKPAATIIWFRDGTQQEGAVASTELLKDGKRETTVSQLLINPTDLDIGRVFTCRSMNEAIPSGKETSIELDVHHPPTVTLSIEPQTVQEGERVVFTCQATANPEILGYRWAKGGFLIEDAHESRYETNVDYSFFTEPVSCEVHNKVGSTNVSTLVNVHFAPRIVVDPKPTTTDIGSDVTLTCVWVGNPPLTLTWTKKDSNMVLSNSNQLLLKSVTQADAGTYTCRAIVPRIGVAEREVPLYVNGPPIISSEAVQYAVRGDGGKVECFIGSTPPPDRIAWAWKENFLEVGTLERYTVERTNSGSGVLSTLTINNVMEADFQTHYNCTAWNSFGPGTAIIQLEEREVLPVGIIAGATIGASILLIFFFIALVFFLYRRRKGSRKDVTLRKLDIKVETVNREPLTMHSDREDDTASVSTATRVMKAIYSSFKDDVDLKQDLRCDTIDTREEYEMKDPTNGYYNVRAHEDRPSSRAVLYADYRAPGPARFDGRPSSRLSHSSGYAQLNTYSRGPASDYGPEPTPPGPAAPAGTDTTSQLSYENYEKFNSHPFPGAAGYPTYRLGYPQAPPSGLERTPYEAYDPIGKYATATRFSYTSQHSDYGQRFQQRMQTHV [KIRREL]	-1.16	-0.769	-0.151	0.0763	52	52.2
RREB1	0.176	1.2	-0.318	0.214	49.4	50.8
GAPDH	-2.02	-3.87	0.191	-0.0817	59.5	60.3
MARPDDEEGAAVAPGHPLAKGYLPLPRGAPVGKESVELQNGPKAGTFPVNGAPRDSLAAASGVLGGPQTPLAPEEETQARLLPAGAGAETPGAESSPLPLTALSPRRFVVLLIFSLYSLVNAFQWIQYSIISNVFEGFYGVTLLHIDWLSMVYMLAYVPLIFPATWLLDTRGLRLTALLGSGLNCLGAWIKCGSVQQHLFWVTMLGQCLCSVAQVFILGLPSRIASVWFGPKEVSTACATAVLGNQLGTAVGFLLPPVLVPNTQNDTNLLACNISTMFYGTSAVATLLFILTAIAFKEKPRYPPSQAQAALQDSPPEEYSYKKSIRNLFKNIPFVLLLITYGIMTGAFYSVSTLLNQMILTYYEGEEVNAGRIGLTLVVAGMVGSILCGLWLDYTKTYKQTTLIVYILSFIGMVIFTFTLDLRYIIIVFVTGGVLGFFMTGYLPLGFEFAVEITYPESEGTSSGLLNASAQIFGILFTLAQGKLTSDYGPKAGNIFLCVWMFIGIILTALIKSDLRRHNINIGITNVDVKAIPADSPTDQEPKTVMLSKQSESAI [FLVCR1]	-1.21	-2.85	-0.162	-0.0168	57.4	59.1
MADNLPTEFDVVIIGTGLPESILAAACSRSGQRVLHIDSRSYYGGNWASFSFSGLLSWLKEYQQNNDIGEESTVVWQDLIHETEEAITLRKKDETIQHTEAFCYASQDMEDNVEEIGALQKNPSLGVSNTFTEVLDSALPEESQLSYFNSDEMPAKHTQKSDTEISLEVTDVEESVEKEKYCGDKTCMHTVSDKDGDKDESKSTVEDKADEPIRNRITYSQIVKEGRRFNIDLVSKLLYSQGLLIDLLIKSDVSRYVEFKNVTRILAFREGKVEQVPCSRADVFNSKELTMVEKRMLMKFLTFCLEYEQHPDEYQAFRQCSFSEYLKTKKLTPNLQHFVLHSIAMTSESSCTTIDGLNATKNFLQCLGRFGNTPFLFPLYGQGEIPQGFCRMCAVFGGIYCLRHKVQCFVVDKESGRCKAIIDHFGQRINAKYFIVEDSYLSEETCSNVQYKQISRAVLITDQSILKTDLDQQTSILIVPPAEPGACAVRVTELCSSTMTCMKDTYLVHLTCSSSKTAREDLESVVKKLFTPYTETEINEEELTKPRLLWALYFNMRDSSGISRSSYNGLPSNVYVCSGPDCGLGNEHAVKQAETLFQEIFPTEEFCPPPPNPEDIIFDGDDKQPEAPGTNNVVMAKLESSEESKNLESPEKHLQN [CHML]	-0.83	-1.67	-0.076	-0.178	54	53.7
MEPEEERIRYSQRLRGTMRRRYEDDGISDDEIEGKRTFDLEEKLHTNKYNANFVTFMEGKDFNVEYIQRGGLRDPLIFKNSDGLGIKMPDPDFTVNDVKMCVGSRRMVDVMDVNTQKGIEMTMAQWTRYYETPEEEREKLYNVISLEFSHTRLENMVQRPSTVDFIDWVDNMWPRHLKESQTESTNAILEMQYPKVQKYCLMSVRGCYTDFHVDFGGTSVWYHIHQGGKVFWLIPPTAHNLELYENWLLSGKQGDIFLGDRVSDCQRIELKQGYTFVIPSGWIHAVYTPTDTLVFGGNFLHSFNIPMQLKIYNIEDRTRVPNKFRYPFYYEMCWYVLERYVYCITNRSHLTKEFQKESLSMDLELNGLESGNGDEEAVDREPRRLSSRRSVLTSPVANGVNLDYDGLGKTCRSLPSLKKTLAGDSSSDCSRGSHNGQVWDPQCAPRKDRQVHLTHFELEGLRCLVDKLESLPLHKKCVPTGIEDEDALIADVKILLEELANSDPKLALTGVPIVQWPKRDKLKFPTRPKVRVPTIPITKPHTMKPAPRLTPVRPAAASPIVSGARRRRVRCRKCKACVQGECGVCHYCRDMKKFGGPGRMKQSCVLRQCLAPRLPHSVTCSLCGEVDQNEETQDFEKKLMECCICNEIVHPGCLQMDGEGLLNEELPNCWECPKCYQEDSSEKAQKRKMEESDEEAVQAKVLRPLRSCDEPLTPPPHSPTSMLQLIHDPVSPRGMVTRSSPGAGPSDHHSASRDERFKRRQLLRLQATERTMVREKENNPSGKKELSEVEKAKIRGSYLTVTLQRPTKELHGTSIVPKLQAITASSANLRHSPRVLVQHCPARTPQRGDEEGLGGEEEEEEEEEEEDDSAEEGGAARLNGRGSWAQDGDESWMQREVWMSVFRYLSRRELCECMRVCKTWYKWCCDKRLWTKIDLSRCKAIVPQALSGIIKRQPVSLDLSWTNISKKQLTWLVNRLPGLKDLLLAGCSWSAVSALSTSSCPLLRTLDLRWAVGIKDPQIRDLLTPPADKPGQDNRSKLRNMTDFRLAGLDITDATLRLIIRHMPLLSRLDLSHCSHLTDQSSNLLTAVGSSTRYSLTELNMAGCNKLTDQTLIYLRRIANVTLIDLRGCKQITRKACEHFISDLSINSLYCLSDEKLIQKIS [KDM2A]	0.0512	-0.325	-1.07	0.642	52.3	50.5
MAFNFGAPSGTSGTAAATAAPAGGFGGFGTTSTTAGSAFSFSAPTNTGTTGLFGGTQNKGFGFGTGFGTTTGTSTGLGTGLGTGLGFGGFNTQQQQQTTLGGLFSQPTQAPTQSNQLINTASALSAPTLLGDERDAILAKWNQLQAFWGTGKGYFNNNIPPVEFTQENPFCRFKAVGYSCMPSNKDEDGLVVLVFNKKETEIRSQQQQLVESLHKVLGGNQTLTVNVEGTKTLPDDQTEVVIYVVERSPNGTSRRVPATTLYAHFEQANIKTQLQQLGVTLSMTRTELSPAQIKQLLQNPPAGVDPIIWEQAKVDNPDSEKLIPVPMVGFKELLRRLKVQDQMTKQHQTRLDIISEDISELQKNQTTSVAKIAQYKRKLMDLSHRTLQVLIKQEIQRKSGYAIQADEEQLRVQLDTIQGELNAPTQFKGRLNELMSQIRMQNHFGAVRSEERYYIDADLLREIKQHLKQQQEGLSHLISIIKDDLEDIKLVEHGLNETIHIRGGVFS [NUP54]	-3.43	-5.53	0.299	0.0698	51.5	49
MAAEKQVPGGGGGGGSGGGGGSGGGGSGGGRGAGGEENKENERPSAGSKANKEFGDSLSLEILQIIKESQQQHGLRHGDFQRYRGYCSRRQRRLRKTLNFKMGNRHKFTGKKVTEELLTDNRYLLLVLMDAERAWSYAMQLKQEANTEPRKRFHLLSRLRKAVKHAEELERLCESNRVDAKTKLEAQAYTAYLSGMLRFEHQEWKAAIEAFNKCKTIYEKLASAFTEEQAVLYNQRVEEISPNIRYCAYNIGDQSAINELMQMRLRSGGTEGLLAEKLEALITQTRAKQAATMSEVEWRGRTVPVKIDKVRIFLLGLADNEAAIVQAESEETKERLFESMLSECRDAIQVVREELKPDQKQRDYILEGEPGKVSNLQYLHSYLTYIKLSTAIKRNENMAKGLQRALLQQQPEDDSKRSPRPQDLIRLYDIILQNLVELLQLPGLEEDKAFQKEIGLKTLVFKAYRCFFIAQSYVLVKKWSEALVLYDRVLKYANEVNSDAGAFKNSLKDLPDVQELITQVRSEKCSLQAAAILDANDAHQTETSSSQVKDNKPLVERFETFCLDPSLVTKQANLVHFPPGFQPIPCKPLFFDLALNHVAFPPLEDKLEQKTKSGLTGYIKGIFGFRS [SRP68]	-0.295	-0.156	-0.033	0.209	50.7	49.4
TRIO	-0.165	0.739	-0.25	-0.0514	48.9	49.5
SLC27A4	0.342	0.581	-0.211	-0.138	50.3	50.9
TMEM55B	-1.51	-1.58	0.135	-0.162	53.4	53.5
